In patent US20140056903A1 (Regeneron, published 2014):

T1: human GFRα3 on HEK293/hGFRα3/hRET/SRE-luc cells (human, UniProt O60609 32-382)
T1 sequence: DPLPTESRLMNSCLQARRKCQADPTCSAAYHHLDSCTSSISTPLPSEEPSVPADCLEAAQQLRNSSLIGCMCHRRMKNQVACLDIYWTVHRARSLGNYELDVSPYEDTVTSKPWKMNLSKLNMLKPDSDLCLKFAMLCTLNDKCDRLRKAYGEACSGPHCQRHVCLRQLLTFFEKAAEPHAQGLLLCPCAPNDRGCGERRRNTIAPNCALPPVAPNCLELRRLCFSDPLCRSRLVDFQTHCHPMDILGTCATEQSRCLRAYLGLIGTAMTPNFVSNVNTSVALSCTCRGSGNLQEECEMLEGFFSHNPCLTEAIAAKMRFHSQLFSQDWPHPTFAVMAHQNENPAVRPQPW


Assays:
[1] = target: T2, human GFRα3 expressed with a C-terminal myc-myc-hexahistidine tag (human, UniProt O60609 32-374, biotinylated (sites not given) in ELISA format 2 and in the Octet cross-competition; not in SPR); assay: SPR, Ab captured, 37C
T2 construct: also called hGFRα3-mmh; hGFRα3-mmH
Outline: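 Biacore kinetics use antibody captured via anti-IgG and a 1:1 fit of association (up to 4 min) and dissociation (up to 20 min) phases. Analyte ranges are 200–7.4 nM for myc-myc-His constructs and 100–3.7 nM for the hFc construct.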

[2] = target: T1, human GFRα3 on …; assay: cell-based or functional assay
[3] = target: T2, human GFRα3 expressed with a C-terminal …; assay: Octet cross-competition; biotin-hGFRα3-mmH pre-saturated with first antibody H4H2291S
Procedure: (§1) A cross-competition assay was conducted to assess the ability of select antibodies to compete with one another for binding to human GFRα3 using an Octet RED384 biosensor (Fortebio Inc.). The entire experiment was performed at 25° C. with the flow rate of 1000 rpm in Octet HBST buffer (0.01 M HEPES pH7.4, 0.15M NaCl, 3 mM EDTA, 0.05% v/v Surfactant P20, 0.1 mg/mL BSA). To assess whether 2 antibodies were able to compete with one another for binding to their respective epitopes on biotinylated recombinant human GFRα3 expressed with a C-terminal myc-myc-hexahistidine tag (biotin-hGFRα3-mmH; SEQ ID:370), around ˜1.2 nm of biotin-hGFRα3-mmH was first captured onto streptavidin-coated Octet sensor tips (Fortebio Inc, #18-5019) by submerging the tips for 1 minute into a 10 μg/mL solution of biotin-hGFRα3-mmH. The antigen coated sensor tips were then placed into wells containing 25 μg/mL solution of a first anti-GFRα3 monoclonal antibody for 4 minutes to saturate the biotin-hGFRα3-mmH surface. The sensor tips were then subsequently dipped into wells containing 25 μ/mL solution of a second anti-GFRα3 monoclonal antibody. The sensor tips were washed in Octet HBST buffer in between every step of the experiment. The real-time binding response was monitored during the course of the experiment and the binding response at the end of every step was recorded as shown in FIG. 9. The response of mAb-2 binding to biotin-hGFRα3-mmH pre-complexed with the first antibody was compared and competitive/non-competitive behavior of different anti-GFRα3 monoclonal antibodies was determined.

[4] = target: T2, human GFRα3 expressed with a C-terminal …; assay: Octet cross-competition; biotin-hGFRα3-mmH pre-saturated with first antibody H4H2295S
Procedure: as §1

[5] = target: T2, human GFRα3 expressed with a C-terminal …; assay: Octet cross-competition; biotin-hGFRα3-mmH pre-saturated with first antibody H4H2292S
Procedure: as §1

[6] = target: T2, human GFRα3 expressed with a C-terminal …; assay: Octet cross-competition; biotin-hGFRα3-mmH pre-saturated with first antibody H4H2243N2
Procedure: as §1

[7] = target: T2, human GFRα3 expressed with a C-terminal …; assay: Octet cross-competition; biotin-hGFRα3-mmH pre-saturated with first antibody H4H2352S
Procedure: as §1

| Kd [1] [nM] | koff [1] [s⁻¹] | kon [1] [M⁻¹ s⁻¹] | t1/2 [1] [min] | IC50 (SRE-luc, HEK293/hGFRα3/hRET cells, 100 pM hARTEMIN-mmH) [2] [nM] | binding response of second antibody (nm) [3] [nm] | binding response of second antibody (nm) [4] [nm] | binding response of second antibody (nm) [5] [nm] | binding response of second antibody (nm) [6] [nm] | binding response of second antibody (nm) [7] [nm] | Binder |
| --- | --- | --- | --- | --- | --- | --- | --- | --- | --- | --- |
| 2.31 | 0.000649 | 281000 | 18 | 22 |  |  |  |  |  | H4H2354S (antibody, human IgG4, V domains shown, human IgG4 Fc (H4H); also called H4H2354S-1) VH: QVQLVESGGGVVQPGRSLRLSCAASGFSFSDYVMHWVRQAPGKGLEWVASIWFDGSNEFYADSVKGRFTISRDNSKNTLFLQMNSLRAEDTAVYYCAKKGVLVATSAFDIWGQGTMVTVSS VL: DIQLTQSPSSLSASVGDRVTITCRASQSINNYLNWYHQKPGKAPKLLIYAASSLQSGVPSRFSGSGSGTDYTLTISSLQPEDFGNYYCQQSYRTSMYTFGQGTKVEIK |
| 1.41 | 0.000589 | 419000 | 20 | 26 |  |  |  |  |  | H4H2346S (antibody, human IgG4, V domains shown, human IgG4 Fc (H4H)) VH: QVQLVESGGGVVQPGRSLRLSCAASGFSFSDYVMHWVRQAPGKGLEWVASIWFDGSNEFYADSVKGRFTISRDNSKNTLFLQMNSLRAEDTAVYYCAKKGVLVATSAFDIWGQGTMVTVSS VL: EIVMTQSPSSLSASVGDRVTITCRASQSINNYLNWYHQKPGKAPKLLIYAASSLQSGVPSRFSGSGSGTDYTLTISSLQPEDFGNYYCQQSYRTSMYTFGQGTKVEIK |
| 47.3 | 0.0087 | 184000 | 1 | 26 |  |  |  |  |  | H4H2345S (antibody, human IgG4, V domains shown, human IgG4 Fc (H4H)) VH: EVQLVESGGGLVRPGRSLRLSCAASGFTFDNYAMHWVRQVPGKGLEWVSGITWNSVSLGYADSVKGRFTISRDNAQNSLYLQMNSLRTVDTALYYCAKDRWGGSYYFDFWGQGTLVTVSS VL: DIVMTQSPSSLSASVGDRVTITCRASQGISNYLAWYQQKPGKVPKLLIYSASTLQSGVPSRFSGSGSGTDFTLTISNLQPEDFATFFCQKYNSAPTFGGGTKVEIK |
| 9.61 | 0.00128 | 134000 | 9 |  | 1.44 | 1.35 | 1.53 | 1.2 | 1.43 | H4H2350P (antibody, human IgG4, V domains shown, human IgG4 Fc (H4H)) VH: QVQLQESGPGLVKPSETLSLTCTVSGGSISTYYWSWFRQPPGKGLEWIGYIYYSGSTNHNPSLKSRVTISVDTSKNQFSLKLRSVTAADTAVYYCARVGPVGWGSWGNFDYWGQGTLVTVSS VL: DIQLTQSPSFLSASVGDRVTITCWASQGISSYLAWSQQKPGKAPKLLIYAASTLQSGVPSRFSGSGSGTEFTLTISSLQPEDFATYYCQQLNSYPWTFGQGTKVEIK |
| 0.809 | 0.000273 | 338000 | 42 | 2.3 |  |  |  |  |  | H4H2364S (antibody, human IgG4, V domains shown, human IgG4 Fc (H4H)) VH: EVQLVESGGGLEQPGGSLRLSCAASGFTFSSYVMSWVRQVPGKGLEWVSVISGSGGSTYYADSVKGRFTISRDNSKNTLYLQMNSLRAEDTAVYYCAKPSSYSSSNFHYGMDVWGQGTTVTVSS VL: DIQMTQSPYSVSASVGDRVTITCRASQGISSWLAWYQQKPGRAPKLLIYAASSLQSGVPSRFSGSGSGTDFTLTISSLQPEDFATYYCQKTNSFPFTFGPGTKVEIK |

The remaining lines, values behind:

| Binder | Kd [1] [nM] | koff [1] [s⁻¹] | kon [1] [M⁻¹ s⁻¹] | t1/2 [1] [min] | IC50 (SRE-luc, HEK293/hGFRα3/hRET cells, 100 pM hARTEMIN-mmH) [2] [nM] | binding response of second antibody (nm) [3] [nm] | binding response of second antibody (nm) [4] [nm] | binding response of second antibody (nm) [5] [nm] | binding response of second antibody (nm) [6] [nm] | binding response of second antibody (nm) [7] [nm] |
| --- | --- | --- | --- | --- | --- | --- | --- | --- | --- | --- |
| H4H2344S (antibody, human IgG4, V domains shown, human IgG4 Fc (H4H)) VH: EVQLVESGGGVVQPGRSLRLSCAASGFSFSDYVMHWVRQAPGKGLEWVASIWFDGSNEFYADSVKGRFTISRDNSKNTLFLQMNSLRAEDTAVYYCAKKGVLVATSAFDIWGQGTMVTVSS VL: DIQMTQSPSSLSASVGDRVTITCRASQSINNYLNWYHQKPGKAPKLLIYAASSLQSGVPSRFSGSGSGTDYTLTISSLQPEDFGNYYCQQSYRTSMYTFGQGTKVEIK | 2.58 | 0.000724 | 280000 | 16 | 48 |  |  |  |  |  |
| H4H2293P (antibody, human IgG4, V domains shown, human IgG4 Fc (H4H)) VH: QVQLVESGGGVVQPGRSLRLSCAASGFSFSDYVMHWVRQAPGKGLEWVASIWFDGSNELYADSVKGRFTISRDNSKNTLFLQMNSLRAEDTAVYYCAKKGVLVATSAFHIWGQGTMVTVSS VL: AIQMTQSPSSLSASVGDRVTITCRASQNINNYLNWYHQKPGKAPNLLIYAASSLQSGVPSRFSGSGSGTDYTLTISSLQPEDFGNYYCQQSYSTSMYTFGQGTKLEIK | 0.313 | 0.000244 | 781000 | 47 | 20 |  |  |  |  |  |
| H4H2212N (antibody, human IgG4, V domains shown, human IgG4 Fc (H4H)) VH: EVQLLESGGGLVQPGGSLRLSCAASGFTFSSYAMSWVRQGPGKGLEWVSGISGSGGSTYNADSVKGRFTISRDNSKNTLYLQMNSLRAEDTAVYYCAKDSGTYWYYFDYWGQGILVTVSS VL: not shown |  |  |  |  | 0.8 | 1.96 | 1.81 | 1.78 | 0.22 | 0.05 |
| H4H2341S (antibody, human IgG4, V domains shown, human IgG4 Fc (H4H)) VH: EVQLVESGAEVKKSGSSVKVSCKASGGTFSRYAISWVRQAPGQGLEWMGGIIPLFGTLNYAQKFQGRVTLTTDESTSTAYMELSSLRSEDTAVYYCAVFYYGSGSYRNWFDPWGQGTLVTVSS VL: not shown | 2.98 | 0.000737 | 248000 | 16 | 7.1 |  |  |  |  |  |
| H4H2236N3 (antibody, human IgG4, V domains shown, human IgG4 Fc (H4H)) VH: EVQLLESGGNLVQPGGSLRLSCAASGFTFSSYAMTWVRQAPGKGLEWVSTISGSGTSTYYADSVKGRFTISRDNSRDTVFLQMNSLRAEDTAVYYCSKPSALRFLHWLAMDVWGQGTLVTVSS VL: DIQMTQSPSSLSAFVGDRVTITCRASQDIRNYLDWFQQKPGKAPKSLIYAASNLQSGVPSRFGGSGSGTDFTLTINSLQPEDFVTYYCQQYNSYPPTFGGGTKVEIK | 0.382 | 0.000748 | 1.96e+06 | 15 | 1.5 | 0.01 | 0.01 | 2.24 | 0.3 | 2.15 |
| H4H2294S (antibody, human IgG4, V domains shown, human IgG4 Fc (H4H)) VH: EVQLVESGGGLVQPGGSLRLSCAASGFTFSSYAMSWVRQAPGKGLEWVSVISGSGGSTYYADAVKGRFTISRDNSKHTLYLQMNSLRAEDTAVYYCTKPSSYSSSNFYYGMDVWGQGSTVTVSS VL: DIQLTQSPSSVSASVGDRVTITCRASQGISSWLAWYQQKPGKAPKLLIYAASSLQSGVPSRFSGSGSGTDFTLTISSLQPEDFATYYCQQTNSFPFPFGPGTKVDIK | 0.338 | 0.000261 | 773000 | 44 |  | 0 | 0.02 | 2.31 | 0.29 | 2.25 |
